Consider one molecule from patent US20240254196A1 (MEDYTOX, published 2024).

Experiment [1] addresses T1, human IL-1β (human, UniProt P01584 117-269).
T1 construct: Bought protein; also called hIL-1β
The experiment can be described thus: ELISA, human IL-1β coated at 30 ng/well, detection with anti-human IgG Fc-HRP, OD 450 nm. How it is done: An analysis of binding of three types of IL-1 specific Fc fusion proteins (rilonacept, IL1T, PET101) to human IL-1β was performed by using an ELISA method. For comparison of binding capacity, human IL-1β antibody canakinumab was used as a control. […] Next day, the plate was washed with Phosphate Buffered Saline with Tween-20 (PBST; TEKNOVA, P1192). All washing procedures in this analysis were performed by using an AquaMax 2000 plate washer (Molecular Devices, 0310-5363). IL1T, PET101, rilonacept, and canakinumab were diluted in PBST containing 1% (w/v) skim milk to an appropriate concentration and treated in each well, binding was induced at room temperature for 1 hour, and plate was washed 3 times. Thereafter, peroxidase-bound anti-human IgG Fc goat antibodies (Invitrogen 31413) were diluted (1:10,000) in PBST containing 1% (w/v) skim milk to induce binding, and washed 3 times with PBST, and then color reaction was induced by treating 3,3′,5,5′-tetramethylbenzidine (TMB) substrate solution (Thermo Fisher Scientific, 34028) in the dark at room temperature. Thereafter, the reaction was terminated by treatment with 1N of sulfuric acid (DUKSAN, 255), and absorbance was measured at 450 nm by using a SpctraMax i3 multimode plate reader (Molecular Devices, 10192-220).
(In general: In an ELISA, binding on a coated surface is turned into a signal by an enzyme label.)

The target in experiment [2] is T2, rhesus monkey (Rhesus macaque) IL-1β (rhesus monkey (Rhesus macaque), UniProt P48090 117-269).
T2 construct: Bought protein; also called Monkey IL-1β; monkey IL-1β
The experiment can be described thus: SPR, Biacore T200; binder captured by anti-human Fc, cytokine injected; 1:1 Langmuir. How it is done:
(§1) In order to analyze binding capacity of PET101 to IL-1α and IL-1β more quantitatively, surface plasmon resonance analysis was performed by using Biacore T200 (GE healthcare). A Series S CM5 Sensor Chip (GE healthcare, BR100530) was used to measure the binding constant, and the anti-human Fc antibodies included in the Human Antibody Capture Kit (GE healthcare, BR100839) were immobilized to the sensor chip according to the manufacturer's manual by using an amine coupling kit (GE healthcare, BR100050). Flow cell 1 of the CM5 sensor, to which anti-human Fc antibodies were immobilized, was used as a blank space, and in Flow cells 2, 3, and 4, 100 nM of PET101 (18 μg/ml), 100 nM of rilonacept (25 μg/ml), and 100 nM of canakinumab (15 μg/ml) were respectively loaded for 1 minute at a flow rate of 10 μl/min. After preparation of all the flow cells, 0.25 nM, 0.5 nM, 1 nM, 2 nM, 4 nM, and 8 nM of human IL-1α (R&D systems, 200-LA), human IL-1β (R&D systems, 201-LB), and mouse IL-1α (R&D systems, 400-ML), mouse IL-1β (R&D systems, 401-ML), and rhesus monkey (Rhesus macaque) IL-1β (R&D systems, 1318-RL) antigens were injected at a flow rate of 30 μl/min, to carry out a binding reaction for 4 minutes, subsequently, only 1×HBS-EP+ buffer (GE healthcare, BR100669) was injected at a flow rate of 30 μl/min to perform a dissociation reaction for 10 minutes. Affinity was calculated by performing normalization and subtraction in each acquired sensorgram comparing with the blank cell. The BIAevaluation software (GE healthcare) was used for affinity calculation, and the association rate constant and dissociation rate constant were calculated through the 1:1 Langmuir model analysis. An equilibrium dissociation constant (KD) is a value obtained by dividing the dissociation rate constant (Kd) by the association rate constant (Kₐ).
(In general: In SPR one partner is held on a chip, and binding of the other changes the refractive index at the surface.)

Experiment [3] has as its target T1, human IL-1β. Described as above. As for the experimental part:
as §1

B1: canakinumab (antibody)
chain 1: not shown
chain 2: EIVLTQSPDFQSVTPKEKVTITCRASQSIGSSLHWYQQKPDQSPKLLIKYASQSFSGVPSRFSGSGSGTDFTLTINSLEAEDAAAYYCHQSSSLPFTFGPGTKVDIKRTVAAPSVFIFPPSDEQLKSGTASVVCLLNNFYPREAKVQWKVDNALQSGNSQESVTEQDSKDSTYSLSSTLTLSKADYEKHKVYACEVTHQGLSSPVTKSFNRGEC
As for B1, the EC50 (commonly the concentration giving half of the maximal effect) in experiment [1] stood at 0.0882 nM. Further, in experiment [2], binding was put at a Kd of 2850 nM; the koff (as a rule, a measure of how fast the partners let go of each other) came to 0.0181 s⁻¹; the kon (as a rule, the rate constant with which the complex forms) stood at 6350 M⁻¹ s⁻¹. Moreover, in experiment [3], the Kd (in general, the free concentration of one partner at which half of the binding sites on the other are occupied at equilibrium, for simple one-to-one binding) is 0.0684 nM; the koff was determined as 5.21e-05 s⁻¹; the kon was 762000 M⁻¹ s⁻¹.
